Substitutions are numbered along the chain they refer to.
T1: hC5a with 6xHis tag (human, UniProt P01031 678-751)
T1 construct: also called WT hC5a; WT-hC5a
T1 sequence: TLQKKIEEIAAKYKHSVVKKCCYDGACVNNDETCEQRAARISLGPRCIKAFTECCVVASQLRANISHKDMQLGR

T2: Val18pBpa mutant of hC5a (human, UniProt P01031 678-751, not fully specified; p-benzoyl-L-phenylalanine (pBpa) at 18)
T2 construct: X stands for pBpa
T2 chain: T1 sequence with V18X

B1: hC5a-35 phage (scFv)
scFv: DIQMTQSPSSLSASVGDRVTITCQASQDISNYLNWYQQKPGKAPKLLIYDASNLETGVPSRFSGSGSGTDFTFTIRSLQPEDIATYYCQQYDNLPPWTFGQGTKVEIKGGSSRSSSSGGGGSGGGGEVQLVESGGGLVEPGRSLRLSCTASGYTFGDYAMSWFRQAPGKDLEWVGFIRSKAYGGTTEYAASVKGRFTISRDDSKSIAYLQMNSLKTEDTAVYYCTRAGNDDQYFDYWGQGTQVTVSS
notes: also called hC5a-35scfv; hC5a-35 scfv
B2: 64UV63 phage (scFv)
scFv: ELTLTQSPAFMSATPGDKVNISCKGSQDIDDNMNWYQQKPGEAIIFIIQEATTLVPGIPPRFSGSGYGTDFTLTINNIESEDAAYYFCLQHDNFPPYTFGQGTKLEIKGGSSRSSSSGGGGSGGGGQVQLQESGGGLVQPGGSLRLSCAASGFTFSSYEMNWVRQAPGKGLEWVSYISSSGSTIYYADSVKGRFTISRDNAKNSLYLQMNSLRAEDTAVYYCARDLGGFDPWGQGTLVTASS
notes: also called 64UV63 scFv

Experiments:
hC5a with 6xHis tag = molecular target: T1, hC5a with 6xHis tag; assay: monoclonal phage panning on coated antigen; ratio of output CFU with and without UV crosslinking
Val18pBpa mutant of hC5a = molecular target: T2, Val18pBpa mutant of hC5a; assay: as above
[1] = molecular target: IL1β 64pBpa mutant (human) (UniProt P01584); assay: monoclonal phage panning on coated antigen, UV 365 nm, competitive/low-pH washes, trypsin release, colony count
[2] = molecular target: IL1β 64pBpa mutant (human) (UniProt P01584); assay: monoclonal phage panning on coated antigen, no UV, competitive/low-pH washes, trypsin release, colony count
[3] = molecular target: IL1β 64pBpa mutant (human) (UniProt P01584); assay: monoclonal phage panning on coated antigen; ratio of output CFU with and without UV crosslinking
IL1β WT with 6xHis tag = molecular target: T3, IL1β WT with 6xHis tag (human, UniProt P01584 117-269); assay: as above
T3 construct: Expressed in E. coli from pET28a with a C-terminal 6xHis tag; about 19 kDa on SDS-PAGE; also called WT IL1β; wild-type IL1β
Excerpt: Colony Forming Unit (CFU) was counted, and finally the positive clones(hits) were picked.
After elution, the output CFUs of UV and non-UV-treated groups were counted and compared.

Binder | UV-treated output CFU/Non-UV-treated output CFU (hC5a with 6xHis tag) | UV-treated output CFU/Non-UV-treated output CFU (Val18pBpa mutant of hC5a) | UV-treated output CFU [1] | Non-UV-treated output CFU [2] | UV-treated output CFU/Non-UV-treated output CFU [3] | UV-treated output CFU/Non-UV-treated output CFU (IL1β WT with 6xHis tag)
B1 | 1.1 ratio | 3.3 ratio | – | – | – | –
B2 | – | – | 140 CFU | 22 CFU | 6.4 | 1.1 ratio
